This assay concerns the target PSD95 (mouse (endogenous in forebrain)) (UniProt Q62108). The assay is described as follows: native gel or EMSA; BNP GluN1 immunoblot of forebrain deoxycholate extracts of WT and Glun2b^2A(CTR)/2A(CTR) mice; 1.5-NR band quantified relative to WT.
Chain of UniProt Q62108 (Q62108 whole entry): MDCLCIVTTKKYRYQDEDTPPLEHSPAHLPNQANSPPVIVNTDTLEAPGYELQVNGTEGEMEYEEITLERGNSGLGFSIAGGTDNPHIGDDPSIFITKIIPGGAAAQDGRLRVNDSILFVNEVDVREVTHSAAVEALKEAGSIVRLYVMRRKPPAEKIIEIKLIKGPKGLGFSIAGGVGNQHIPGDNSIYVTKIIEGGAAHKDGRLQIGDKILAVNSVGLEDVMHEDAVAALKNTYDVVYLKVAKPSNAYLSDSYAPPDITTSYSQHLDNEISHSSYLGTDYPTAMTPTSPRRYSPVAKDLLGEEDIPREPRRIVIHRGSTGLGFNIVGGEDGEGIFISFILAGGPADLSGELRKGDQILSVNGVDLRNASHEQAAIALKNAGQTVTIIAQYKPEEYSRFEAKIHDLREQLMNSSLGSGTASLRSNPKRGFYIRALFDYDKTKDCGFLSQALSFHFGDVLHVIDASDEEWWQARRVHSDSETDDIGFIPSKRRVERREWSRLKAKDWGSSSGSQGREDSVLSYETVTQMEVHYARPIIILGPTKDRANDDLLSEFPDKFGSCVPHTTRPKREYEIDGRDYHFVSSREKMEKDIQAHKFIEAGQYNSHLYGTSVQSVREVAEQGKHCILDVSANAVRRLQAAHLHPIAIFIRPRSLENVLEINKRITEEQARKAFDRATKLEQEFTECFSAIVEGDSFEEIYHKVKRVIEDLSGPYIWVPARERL

In the case of “GluN2B with its C-terminal domain replaced by that of GluN2A (Glun2b^2A(CTR)/2A(CTR) knock-in)”, the 1.5-NR, % of WT is 6 % of WT.

The values are drawn from PMC5227094.
